Data taken from paper PMC3037030.

Substrate: CCCCC/C=C\C/C=C\C/C=C\C/C=C\CCCC(=O)O
Experiment: radiometric acyl-CoA synthetase assay
Assay type: biochemical, Rattus norvegicus
Settings: ATP, Mg2+

B1: Acsl3 (Rattus norvegicus) (protein)
chain: MNNHVSSTPSTMKLKQTIHPILLYFIHFIISLYTILTYIPFYFLCESKQEKPNHIKAKPVSSKPDSAYRSVNSMDGLASVLYPGCDTLDKVFMYAKNKFKDKRLLGTREILNEEDEIQPNGKVFKKVILGHYNWLSYEDVFIRALDFGNGLQMLGQKPKANIAIFCETRAEWMIAAQACFMYNFQLVTLYATLGGPAIVHGLNETEVTNIITSKELLQTKLKDIVSLVPRLRHIITVDGKPPTWSEFPKGVIVHTMAAVQALGVKADVDKKAHSKPLPSDIAVIMYTSGSTGIPKGVMISHSNIIASITGMARRIPRLGEEDVYIGYLPLAHVLELSAELVCLSHGCRIGYSSPQTLADQSSKIKKGSKGDTSVLKPTLMAAVPEIMDRIYKNVMNKVNEMSAFQRNLFILAYNYKMEQISKGCSTPLCDRFVFRNVRRLLGGNIRVLLCGGAPLSATTQRFMNICFCCPVGQGYGLTESTGAGTITEVWDYNTGRVGAPLVCCEIKLKNWEEGGYFNTDKPHPRGEILIGGQNVTMGYYKNEAKTKADFFEDENGQRWLCTGDIGEFDPDGCLKIIDRKKDLVKLQAGEYVSLGKVEAALKNLPLIDNICAYANSYHSYVIGFVVPNQKELTELARTKGFNGTWEELCNSSEMENEVLKVLSEAAISASLEKFEIPLKIRLSPDPWTPETGLVTDAFKLKRKELKTHYQADIERMYGRK
Km: 48 µM | Vmax: 0.008 µmol/min/mg | Vmax/Km: 3e-05 min⁻¹
